Results as given in patent US20020002269A1, “ARTEMIN, A NEUROTROPHIC FACTOR” (priority 1998, published 2002).

Assays:
[1] = system: SH-SY5Y neuroblastoma cell line; test: Differentiation of SH-SY5Y neuroblastoma cells; assay type: cell-based; conditions: 10 μM, three days after factor addition, FIG. 8B
Experimental: In one experiment, cells from the SH-SY5Y neuroblastoma cell line were plated at 2×10^5 cells/ml/well in 12-well tissue culture plates. After one day in culture cells were either left untreated (Cn) or stimulated with 50 ng/ml artemin (ART) or 10 μM retinoic acid (RA), a known inducer of differentiation of SH-SYSY cells. Three days after factor addition, differentiation was assessed and cells were photographed.

[2] = molecular target: recombinant GDNF (human mature amino acid sequence) (human); test: plate binding assay: ligand coated, soluble receptor body titrated, anti-human Fc-HRP, A450; apparent Kd
[3] = molecular target: recombinant neurturin (human mature amino acid sequence) (human); test: as above
[4] = molecular target: recombinant human artemin protein (human); test: as above
[5] = system: NBL-S neuroblastoma cell line; test: BrdU cell proliferation assay in NBL-S neuroblastoma cells; assay type: cell-based; conditions: 50 ng/mL, 30 hrs after factor addition, FIG. 8D
Experimental: In another experiment, the ability of artemin to induce proliferation of the NBL-S neuroblastoma cell line was examined. NBL-S cells were plated at 5×10^4 cells/well on 48-well plates in standard medium, either without treatment or in the presence of 50 ng/mL of GDNF, artemin, or persephin. Actively dividing cells undergoing DNA synthesis 30 hrs after factor addition were detected using the BrdU (colorimetric) cell proliferation assay kit according to the manufacturer's instructions (Boehringer-Mannheim) and the data are shown in FIG. 8D.

GFRα1-Fc = test: Direct binding of soluble GFRα1-Fc receptor body to plate-coated ligand; conditions: ligand coated at 325 ng/ml, absence of RET, FIG. 9C
Experimental: (§1) To investigate which if any of the known coreceptor(s) artemin can utilize to activate RET, its ability to directly bind to soluble Fc-fusion forms of GFRα1, GFRα2, or GFRα3 was assessed. GFRα1-Fc, GFRα2-Fc and GFRα3-Fc fusion proteins were obtained from R&D Systems. Binding assays were performed similarly to assays previously described (Sanicola et al., Proc. Natl. Acad. Sci., USA 94:6238-6243, 1997). Recombinant GDNF, neurturin, artemin, persephin, or purified bovine serum albumin (BSA; Pierce) were coated to Nunc-Immuno MaxiSorp microtiter plates at 325 ng/ml in TBS (10 mM Tris-HCl pH 7.5, 150 mM NaCl) for 1 hour at 25° C. Plates were washed (3× in TBS/0.03% Tween-20), and then blocked (blocking solution: TBS/1% BSA) for 1 hr at 25° C. Receptor bodies diluted in blocking solution were added and incubated for 2 hr at 25° C., washed 5X, then incubated with 1:10,000 dilution of HRP-conjugated anti-human Fc antibodies in blocking solution (Jackson Immunoresearch) for 45 minutes at 25° C. Finally, wells were washed 5× and the presence of HRP was assayed by addition of the chromogenic substrate 3,3, 5,5-tetramethylbenzidine for 5 min. The reaction was stopped by adding an equal volume of 0.5M H2SO4, and color was measured in a plate reader at 450 nm. Non-specific binding of receptor bodies to the plates was measured in BSA coated wells, and this binding was subtracted from all other measurements.

[6] = system: dorsal root ganglion (DRG) neurons; test: Survival of cultured dorsal root ganglion neurons; assay type: cell-based, rat; conditions: 50 ng/ml, 3 days in culture, FIG. 7A
Experimental: (§2) Each GDNF ligand family member consisted of the human mature amino acid sequence and was produced by standard recombinant DNA methods. Recombinant GDNF, neurturin and persephin were obtained from Genentech while recombinant artemin was produced as described in Example 3.
(§3) The cultures were performed using standard methods described elsewhere (Kotzbauer et al., Neuron 12:763-773, 1994; Kotzbauer et al., Nature 384:467-470, 1996; Milbrandt et al., Neuron 20:245-253, 1998). In brief, for SCG neurons, after dissection and dissociation, neurons were plated on collagen-coated 24-well tissue culture plates and maintained in NGF-containing medium (AM50) for 5 days, after which they were either kept in AM50 or switched to medium containing neutralizing anti-NGF antibodies plus GDNF, neurturin, persephin, artemin, (50 ng/ml where not noted otherwise), or no growth factors. Cultures were maintained for 3 days, after which they were fixed in 4% paraformaldehyde and stained with toluidine blue, and surviving neurons were counted. For nodose ganglion and dorsal root ganglion neuron cultures, dissociated neurons were plated directly into NGF (for dorsal root ganglia), or BDNF (for nodose ganglia, 100 ng/ml) or one of the GDNF ligands in serum-containing medium (AM50 with anti-NGF antibodies), and cells surviving after 3 days in culture were counted as above. Trigeminal ganglia were dissected, dissociated, and plated directly into medium containing NGF or the indicated GDNF ligands, and the number of surviving cells was assessed after 3 days in vitro. For all culture systems, 2-3 independent experiments were performed.

[7] = system: trigeminal ganglion (TG) neurons; test: Survival of cultured trigeminal ganglion neurons; assay type: cell-based, rat; conditions: 50 ng/ml, 3 days in vitro, FIG. 7C
Experimental: as §2, §3

[8] = system: nodose ganglion (NG) neurons; test: Survival of cultured nodose ganglion neurons; assay type: cell-based, rat; conditions: FIG. 7D
Experimental: as §2, §3

[9] = system: CHP126 neuroblastoma cell line; test: Responsiveness of a neuroblastoma cell line that does not express RET (CHP126); assay type: cell-based; conditions: data not shown
[10] = system: CHP134 neuroblastoma cell line; test: Responsiveness of a neuroblastoma cell line that does not express RET (CHP134); assay type: cell-based; conditions: data not shown
[11] = system: SAN neuroblastoma cell line; test: Responsiveness of a neuroblastoma cell line that does not express RET (SAN); assay type: cell-based; conditions: data not shown
GFRα2-Fc = test: Direct binding of soluble GFRα2-Fc receptor body to plate-coated ligand; conditions: ligand coated at 325 ng/ml, absence of RET, FIG. 9D
Experimental: as §1, with “Finally, wells were washed 5× and the presence of HRP was assayed by addition of the chromogenic substrate 3,3, 5,5-tetramethylbenzidine for 5 min.” left out

## CC1=C(/C=C/C(C)=C/C=C/C(C)=C/C(=O)O)C(C)(C)CCC1 [retinoic acid, all-trans retinoic acid, reference compound]
[1]
  differentiation (neurite outgrowth, neuronal morphology) of SH-SY5Y cells: induced strong differentiation responses

## GFRα1-Fc fusion protein
[2]
  Kd: 3 nM
[3]
  Kd: 3 nM

## GFRα2-Fc fusion protein
[3]
  Kd: 3 nM

## GFRα3-Fc fusion protein
[4]
  Kd: 3 nM

B1: persephin: recombinant human mature persephin obtained from Genentech (protein, UniProt O60542 22-156, looked up)
Persephin: WGPDARGVPVADGEFSSEQVAKAGGTWLGTHRPLARLRRALSGPCQLWSLTLSVAELGLGYASEEKVIFRYCAGSCPRGARTQHGLALARLQGQGRAHGGPCCRPTRYTDVAFLDDRHRWQRLPQLSAAACGCGG
[5]
  proliferation of NBL-S cells (BrdU incorporation): did not
GFRα1-Fc
  direct binding of GFRα1-Fc: not to persephin or artemin

B2: neurturin: recombinant human mature neurturin obtained from Genentech (protein, UniProt Q99748 96-197, looked up)
Neurturin: ARLGARPCGLRELEVRVSELGLGYASDETVLFRYCAGACEAAARVYDLGLRRLRQRRRLRRERVRAQPCCRPTAYEDEVSFLDAHSRYHTVHELSARECACV
[6]
  survival of DRG sensory neurons: supported the survival of a subset of sensory neurons
[7]
  survival of TG sensory neurons: supported the survival of a subset of sensory neurons
[8]; 50 ng/ml, 3 days in culture
  survival of NG neurons: supported similar numbers of NG neurons
[8]; GDNF family ligands 50 ng/ml, BDNF 100 ng/ml
  survival promotion of NG neurons compared with BDNF: equal or greater survival promotion than BDNF
[9]
  response of CHP126 cells: did not respond
[10]
  response of CHP134 cells: did not respond
[11]
  response of SAN cells: did not respond
GFRα1-Fc
  direct binding of GFRα1-Fc: able to bind to both GDNF and neurturin with similar affinity
GFRα2-Fc
  direct binding of GFRα2-Fc: bound to neurturin
